In the supplement of paper PMC6379048:

Columns and labels:
Test in all cases: EC50 of free RNA motif oligo competing protein binding to immobilised probe
RBM14 = target: T1, RBM14 (UniProt Q96PK6)
T1 sequence: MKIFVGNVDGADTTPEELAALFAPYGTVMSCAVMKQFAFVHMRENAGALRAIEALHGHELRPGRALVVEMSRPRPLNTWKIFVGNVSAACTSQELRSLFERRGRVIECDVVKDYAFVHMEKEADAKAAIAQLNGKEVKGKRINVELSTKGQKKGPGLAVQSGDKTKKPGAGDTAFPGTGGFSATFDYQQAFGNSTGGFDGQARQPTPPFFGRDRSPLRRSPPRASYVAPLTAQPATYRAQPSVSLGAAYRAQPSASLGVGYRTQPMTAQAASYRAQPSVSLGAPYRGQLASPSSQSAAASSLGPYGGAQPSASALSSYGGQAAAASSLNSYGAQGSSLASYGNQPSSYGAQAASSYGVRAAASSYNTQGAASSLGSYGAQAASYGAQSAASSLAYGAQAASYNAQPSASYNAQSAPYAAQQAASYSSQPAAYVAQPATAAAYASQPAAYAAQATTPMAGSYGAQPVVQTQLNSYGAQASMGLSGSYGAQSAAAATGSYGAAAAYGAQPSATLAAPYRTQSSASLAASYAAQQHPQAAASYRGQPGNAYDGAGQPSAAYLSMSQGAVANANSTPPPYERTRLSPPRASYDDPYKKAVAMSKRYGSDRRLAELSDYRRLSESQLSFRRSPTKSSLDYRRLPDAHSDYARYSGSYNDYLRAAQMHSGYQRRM
Method in brief: (§1)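 Kd was calculated as EC50, taken from a four-parameter log-logistic fit, multiplied by a protein-dependent depletion factor. The assay used HEK293-FT lysate (2.5 mg protein/well) pre-incubated for 1 h at 4°C with free RNA oligos (0 nM to 30 μM), then incubated for 30 min at 4°C with the matching oligos bound through a 5′-amino-C6 linker to NHS-Sepharose beads. Bound proteins were measured by label-free LC-MS/MS and normalised to the control.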

HNRNPF = target: T2, HNRNPF (UniProt P52597)
T2 sequence: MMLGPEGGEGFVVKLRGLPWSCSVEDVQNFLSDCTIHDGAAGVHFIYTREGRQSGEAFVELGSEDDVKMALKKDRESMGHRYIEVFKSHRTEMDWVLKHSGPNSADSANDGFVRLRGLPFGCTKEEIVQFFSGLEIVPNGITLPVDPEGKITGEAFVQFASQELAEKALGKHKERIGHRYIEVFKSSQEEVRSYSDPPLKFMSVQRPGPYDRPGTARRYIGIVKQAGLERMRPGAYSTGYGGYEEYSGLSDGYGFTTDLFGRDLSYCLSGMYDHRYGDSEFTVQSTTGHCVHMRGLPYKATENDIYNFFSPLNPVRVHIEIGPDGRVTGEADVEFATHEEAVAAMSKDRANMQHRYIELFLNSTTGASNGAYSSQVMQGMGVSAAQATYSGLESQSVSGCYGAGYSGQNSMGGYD
Method in brief: as §1

P4HA1 = P4HA1 (UniProt P13674)
Method in brief: as §1

CSNK2B = CSNK2B (UniProt P67870)
Method in brief: as §1

FUBP1 = target: T3, FUBP1 (UniProt Q96AE4)
T3 sequence: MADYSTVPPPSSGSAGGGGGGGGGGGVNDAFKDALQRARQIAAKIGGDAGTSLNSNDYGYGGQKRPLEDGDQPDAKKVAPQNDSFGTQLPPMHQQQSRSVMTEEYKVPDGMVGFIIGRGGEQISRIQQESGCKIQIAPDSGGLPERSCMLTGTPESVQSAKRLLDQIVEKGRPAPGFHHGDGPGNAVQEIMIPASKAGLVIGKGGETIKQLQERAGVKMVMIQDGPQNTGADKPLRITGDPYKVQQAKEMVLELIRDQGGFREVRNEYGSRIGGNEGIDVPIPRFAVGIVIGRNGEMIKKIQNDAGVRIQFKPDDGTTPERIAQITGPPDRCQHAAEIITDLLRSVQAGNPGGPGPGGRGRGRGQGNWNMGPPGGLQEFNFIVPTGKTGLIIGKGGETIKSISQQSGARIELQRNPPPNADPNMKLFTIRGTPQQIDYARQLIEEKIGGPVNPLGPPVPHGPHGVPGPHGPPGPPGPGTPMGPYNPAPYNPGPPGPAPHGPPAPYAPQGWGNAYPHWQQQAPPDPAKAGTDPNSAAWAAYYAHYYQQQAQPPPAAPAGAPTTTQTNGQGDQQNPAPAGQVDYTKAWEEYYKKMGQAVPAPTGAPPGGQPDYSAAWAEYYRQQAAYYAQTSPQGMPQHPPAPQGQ
Method in brief: as §1

RPS17 = RPS17 (UniProt P08708)
Method in brief: as §1

CDKN2AIP = target: T4, CDKN2AIP (UniProt Q9NXV6)
T4 sequence: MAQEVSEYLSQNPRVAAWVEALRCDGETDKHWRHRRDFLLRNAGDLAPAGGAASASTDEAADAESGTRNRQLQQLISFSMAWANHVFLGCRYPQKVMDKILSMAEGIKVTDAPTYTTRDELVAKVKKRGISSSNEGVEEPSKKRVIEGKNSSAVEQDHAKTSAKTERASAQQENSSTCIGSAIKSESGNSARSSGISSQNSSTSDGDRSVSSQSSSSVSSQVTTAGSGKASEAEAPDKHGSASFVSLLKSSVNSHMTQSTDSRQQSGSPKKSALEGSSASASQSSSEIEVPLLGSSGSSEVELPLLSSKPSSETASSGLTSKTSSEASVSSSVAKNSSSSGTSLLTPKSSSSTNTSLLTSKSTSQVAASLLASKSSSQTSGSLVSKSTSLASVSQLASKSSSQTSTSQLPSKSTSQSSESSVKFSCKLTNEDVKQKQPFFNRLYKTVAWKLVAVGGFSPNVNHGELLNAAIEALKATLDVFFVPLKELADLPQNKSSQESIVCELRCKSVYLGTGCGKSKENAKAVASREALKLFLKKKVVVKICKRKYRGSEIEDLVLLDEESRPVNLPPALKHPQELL
Method in brief: as §1

Sequence of CSNK2B (P67870 whole entry): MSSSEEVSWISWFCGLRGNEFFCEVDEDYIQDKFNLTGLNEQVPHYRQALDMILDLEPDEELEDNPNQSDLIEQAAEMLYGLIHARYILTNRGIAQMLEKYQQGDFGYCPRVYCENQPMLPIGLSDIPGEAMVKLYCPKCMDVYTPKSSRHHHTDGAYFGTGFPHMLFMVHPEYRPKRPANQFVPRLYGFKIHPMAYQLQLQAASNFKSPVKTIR
Sequence of P4HA1 (P13674 whole entry): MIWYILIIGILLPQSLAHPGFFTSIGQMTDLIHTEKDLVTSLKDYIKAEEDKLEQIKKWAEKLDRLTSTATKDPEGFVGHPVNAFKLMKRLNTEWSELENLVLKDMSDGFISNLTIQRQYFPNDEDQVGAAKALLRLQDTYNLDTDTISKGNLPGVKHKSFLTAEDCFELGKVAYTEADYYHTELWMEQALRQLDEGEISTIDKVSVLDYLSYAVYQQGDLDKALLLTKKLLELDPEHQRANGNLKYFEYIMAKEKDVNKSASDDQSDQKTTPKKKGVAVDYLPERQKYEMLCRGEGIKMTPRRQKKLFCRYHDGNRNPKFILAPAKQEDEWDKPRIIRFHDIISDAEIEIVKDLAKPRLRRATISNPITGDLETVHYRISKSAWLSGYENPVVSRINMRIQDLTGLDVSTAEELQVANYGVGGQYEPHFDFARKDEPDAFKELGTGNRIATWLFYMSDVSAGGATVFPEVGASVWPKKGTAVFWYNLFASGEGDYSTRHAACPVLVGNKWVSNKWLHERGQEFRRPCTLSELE

Row | Sequence | EC50 (RBM14) [µM] | EC50 (HNRNPF) [µM] | EC50 (P4HA1) [µM] | EC50 (CSNK2B) [µM] | EC50 (FUBP1) [µM] | EC50 (RPS17) [µM] | EC50 (CDKN2AIP) [µM]
1 | AAUAAA | 1.98 | 6.12 | 0.0656 | 3.56 | 5.75 | 0.128 | 
2 | UAUUUAU |  |  |  |  |  |  | 0.419
